Reference: patent publication US20170247716A1 (PIONEER HI BRED INTERNATIONAL, published 2017)

T1: AtRTE1-Cub-PLV (Arabidopsis, UniProt F4ITL6 1-250)
T1 construct: Bait of the mating-based split-ubiquitin yeast two-hybrid system; also called AtRTE1 bait construct; not shown: C-terminal half of ubiquitin (Cub); synthetic transcription factor PLV (protease A-LexA-VP16)
T1 sequence (looked up): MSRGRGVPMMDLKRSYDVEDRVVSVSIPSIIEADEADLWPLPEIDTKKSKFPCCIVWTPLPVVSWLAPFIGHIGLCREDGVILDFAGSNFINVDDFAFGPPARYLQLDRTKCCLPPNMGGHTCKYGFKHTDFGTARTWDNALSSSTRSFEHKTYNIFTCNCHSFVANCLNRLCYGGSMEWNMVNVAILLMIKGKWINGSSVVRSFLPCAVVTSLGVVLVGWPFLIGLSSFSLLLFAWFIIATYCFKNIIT

B1: AtARL-NubG (other, UniProt Q8RXL7 1-135, looked up)
chain: MIREFSSLQNDIINIQEHYSLNNNMDVRGDHNRKNTSFRGSAPAPIMGKQELFRTLSSQNSPRRLISASYFSLESMVVLVGLTASLLILPLILPPLPPPPFMLLLIPIGIMVLLMVLAFMPSSNSKHVSSSSTFM
notes: Prey of the split-ubiquitin yeast two-hybrid system; also called Arabidopsis ARGOS-LIKE (ARL); not shown: N-terminal half of a mutated ubiquitin (NubG)

How the values were obtained:
[1] = biological target: T1, AtRTE1-Cub-PLV; assay: yeast split-ubiquitin two-hybrid
Protocol: (§1) (B) β-Galactosidase assay for yeast diploid cells expressing AtRTE1-Cub-PLV and various ARGOS-NubG fusion proteins. Yeast cells were cultured in SC-Leu-Trp liquid medium. The β-Galactosidase (β-Gal) activity assay uses […] as a substrate. (C) Growth of yeast diploid cells from the mating of haploid strains containing ARGOS-NubG constructs and negative control […] construct. The plates were incubated at 28° C. for 4 days. (D) Liquid β-Galactosidase assay for yeast diploid cells expressing negative control AtCHX20-Cub-PLV and various ARGOS-NubG fusion proteins.
(§2) (A) Growth of yeast diploid cells on SC dropout media to show protein-protein interaction of ZmRTL4 with Arabidopsis and maize ARGOS. The SC-Leu-Trp and SC-Leu-Trp-His-Ade media contain 134 and 375 μM Met, respectively. The plates were incubated at 28° C. for 4 days. (B) β-Galactosidase assay for yeast diploid cells expressing ZmRTE4-Cub-PLV and various ARGOS-NubG fusion proteins. (C) Growth of yeast diploid cells on SC dropout media to show protein-protein interaction of ZmRTL2 with Arabidopsis and maize ARGOS. The SC-Leu-Trp and SC-Leu-Trp-His-Ade media contain 134 μM Met. The plates were incubated at 28° C. for 5 days. (D) β-Galactosidase assay for yeast diploid cells expressing ZmRTE2-Cub-PLV and various ARGOS-NubG fusion proteins. […]

[2] = biological target: B1; assay: yeast split-ubiquitin two-hybrid
Protocol: as §1, §2

binding result [1] | binding result [2] | Binder
binds | – | B1
– | binds | ZmRTL4-Cub-PLV (other, domain: C-terminal half of ubiquitin (Cub); Bait of the split-ubiquitin yeast two-hybrid system; the legend prints ZmRTE4-Cub-PLV; also called ZmRTE4-Cub-PLV; ZmRTL4 bait construct; not shown: C-terminal half of ubiquitin (Cub); synthetic transcription factor PLV (protease A-LexA-VP16)) MENDRRQLGQIDPRRARFPCCIVWTPIPFITWLVPFIGHIGICREDGVILDFSGPHFVSVDNFAFGAVARYIQVNCDECYKLIEPEGDATWDGALKKGTQEFQNRNYNLFTCNCHSFVANNLNRLFYSGHDEWNVVSLAAVMFLRGRWVSTASVVKTLLPFAVVLSIGTFLGGTTFLTGLLAFAAAMTVWFLVGTYCIKGLIEL
